In patent US20220025010A1 (ANTAG THERAPEUTICS, published 2022):
Where no end group is shown, it is not given here. The star is where a group is joined. C16 diacid = O=C(O)CCCCCCCCCCCCCCC(=O)*

B1: AT269 (peptide)
peptide: GGTFISDYSIAMDRIKQQDFVNWLLAQR
HELM: PEPTIDE1{G.G.T.F.I.S.D.Y.S.I.A.M.D.R.I.K.Q.Q.D.F.V.N.W.L.L.A.Q.R}|PEPTIDE2{[O=C(O)CCCCCCCCCCCCCCC(=O)[*:2]].[gGlu].[O=C(COCCOCCN[*:1])[*:2]]}$PEPTIDE1,PEPTIDE2,16:R3-3:R2$$$V2.0; N-terminus assumed
SMILES: CC[C@H](C)[C@H](NC(=O)[C@H](CO)NC(=O)[C@H](Cc1ccc(O)cc1)NC(=O)[C@H](CC(=O)O)NC(=O)[C@H](CO)NC(=O)[C@@H](NC(=O)[C@H](Cc1ccccc1)NC(=O)[C@@H](NC(=O)CNC(=O)CN)[C@@H](C)O)[C@@H](C)CC)C(=O)N[C@@H](C)C(=O)N[C@@H](CCSC)C(=O)N[C@@H](CC(=O)O)C(=O)N[C@@H](CCCNC(=N)N)C(=O)N[C@H](C(=O)N[C@@H](CCCCNC(=O)COCCOCCNC(=O)CC[C@H](NC(=O)CCCCCCCCCCCCCCC(=O)O)C(=O)O)C(=O)N[C@@H](CCC(N)=O)C(=O)N[C@@H](CCC(N)=O)C(=O)N[C@@H](CC(=O)O)C(=O)N[C@@H](Cc1ccccc1)C(=O)N[C@H](C(=O)N[C@@H](CC(N)=O)C(=O)N[C@@H](Cc1c[nH]c2ccccc12)C(=O)N[C@@H](CC(C)C)C(=O)N[C@@H](CC(C)C)C(=O)N[C@@H](C)C(=O)N[C@@H](CCC(N)=O)C(=O)N[C@@H](CCCNC(=N)N)C(=O)O)C(C)C)[C@@H](C)CC
B2: AT259 (peptide)
peptide: SGTFISDYSIAMDRIK(C16 diacid)QQDFVNWLLAQR-OH
modifications: N-terminus assumed
SMILES: CC[C@H](C)[C@H](NC(=O)[C@H](CO)NC(=O)[C@H](Cc1ccc(O)cc1)NC(=O)[C@H](CC(=O)O)NC(=O)[C@H](CO)NC(=O)[C@@H](NC(=O)[C@H](Cc1ccccc1)NC(=O)[C@@H](NC(=O)CNC(=O)[C@@H](N)CO)[C@@H](C)O)[C@@H](C)CC)C(=O)N[C@@H](C)C(=O)N[C@@H](CCSC)C(=O)N[C@@H](CC(=O)O)C(=O)N[C@@H](CCCNC(=N)N)C(=O)N[C@H](C(=O)N[C@@H](CCCCNC(=O)CCCCCCCCCCCCCCC(=O)O)C(=O)N[C@@H](CCC(N)=O)C(=O)N[C@@H](CCC(N)=O)C(=O)N[C@@H](CC(=O)O)C(=O)N[C@@H](Cc1ccccc1)C(=O)N[C@H](C(=O)N[C@@H](CC(N)=O)C(=O)N[C@@H](Cc1c[nH]c2ccccc12)C(=O)N[C@@H](CC(C)C)C(=O)N[C@@H](CC(C)C)C(=O)N[C@@H](C)C(=O)N[C@@H](CCC(N)=O)C(=O)N[C@@H](CCCNC(=N)N)C(=O)O)C(C)C)[C@@H](C)CC
B3: AT267 (peptide)
peptide: PGTFISDYSIAMDRIKQQDFVNWLLAQR
HELM: PEPTIDE1{P.G.T.F.I.S.D.Y.S.I.A.M.D.R.I.K.Q.Q.D.F.V.N.W.L.L.A.Q.R}|PEPTIDE2{[O=C(O)CCCCCCCCCCCCCCC(=O)[*:2]].[gGlu]}$PEPTIDE1,PEPTIDE2,16:R3-2:R2$$$V2.0; N-terminus assumed
SMILES: CC[C@H](C)[C@H](NC(=O)[C@H](CO)NC(=O)[C@H](Cc1ccc(O)cc1)NC(=O)[C@H](CC(=O)O)NC(=O)[C@H](CO)NC(=O)[C@@H](NC(=O)[C@H](Cc1ccccc1)NC(=O)[C@@H](NC(=O)CNC(=O)[C@@H]1CCCN1)[C@@H](C)O)[C@@H](C)CC)C(=O)N[C@@H](C)C(=O)N[C@@H](CCSC)C(=O)N[C@@H](CC(=O)O)C(=O)N[C@@H](CCCNC(=N)N)C(=O)N[C@H](C(=O)N[C@@H](CCCCNC(=O)CC[C@H](NC(=O)CCCCCCCCCCCCCCC(=O)O)C(=O)O)C(=O)N[C@@H](CCC(N)=O)C(=O)N[C@@H](CCC(N)=O)C(=O)N[C@@H](CC(=O)O)C(=O)N[C@@H](Cc1ccccc1)C(=O)N[C@H](C(=O)N[C@@H](CC(N)=O)C(=O)N[C@@H](Cc1c[nH]c2ccccc12)C(=O)N[C@@H](CC(C)C)C(=O)N[C@@H](CC(C)C)C(=O)N[C@@H](C)C(=O)N[C@@H](CCC(N)=O)C(=O)N[C@@H](CCCNC(=N)N)C(=O)O)C(C)C)[C@@H](C)CC
B4: AT261 (peptide)
peptide: PGTFISDYSIAMDRIK(C16 diacid)QQDFVNWLLAQR-OH
modifications: N-terminus assumed
SMILES: CC[C@H](C)[C@H](NC(=O)[C@H](CO)NC(=O)[C@H](Cc1ccc(O)cc1)NC(=O)[C@H](CC(=O)O)NC(=O)[C@H](CO)NC(=O)[C@@H](NC(=O)[C@H](Cc1ccccc1)NC(=O)[C@@H](NC(=O)CNC(=O)[C@@H]1CCCN1)[C@@H](C)O)[C@@H](C)CC)C(=O)N[C@@H](C)C(=O)N[C@@H](CCSC)C(=O)N[C@@H](CC(=O)O)C(=O)N[C@@H](CCCNC(=N)N)C(=O)N[C@H](C(=O)N[C@@H](CCCCNC(=O)CCCCCCCCCCCCCCC(=O)O)C(=O)N[C@@H](CCC(N)=O)C(=O)N[C@@H](CCC(N)=O)C(=O)N[C@@H](CC(=O)O)C(=O)N[C@@H](Cc1ccccc1)C(=O)N[C@H](C(=O)N[C@@H](CC(N)=O)C(=O)N[C@@H](Cc1c[nH]c2ccccc12)C(=O)N[C@@H](CC(C)C)C(=O)N[C@@H](CC(C)C)C(=O)N[C@@H](C)C(=O)N[C@@H](CCC(N)=O)C(=O)N[C@@H](CCCNC(=N)N)C(=O)O)C(C)C)[C@@H](C)CC

molecular target: T1, human GIP receptor (human, UniProt P48546 22-466); test: cell-based or functional assay
T1 sequence (looked up): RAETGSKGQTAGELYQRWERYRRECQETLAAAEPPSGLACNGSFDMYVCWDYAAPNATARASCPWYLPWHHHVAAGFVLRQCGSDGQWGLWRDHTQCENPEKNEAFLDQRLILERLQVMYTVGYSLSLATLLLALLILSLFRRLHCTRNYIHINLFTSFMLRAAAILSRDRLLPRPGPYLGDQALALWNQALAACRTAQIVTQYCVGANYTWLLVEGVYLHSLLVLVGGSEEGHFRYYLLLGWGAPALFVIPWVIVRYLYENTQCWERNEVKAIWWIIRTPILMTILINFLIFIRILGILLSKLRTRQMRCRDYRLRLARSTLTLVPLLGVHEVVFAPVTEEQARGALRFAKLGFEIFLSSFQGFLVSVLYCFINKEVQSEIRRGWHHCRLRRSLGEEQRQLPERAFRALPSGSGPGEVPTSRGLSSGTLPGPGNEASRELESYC

Binder | CisBio cAMP agonism % Efficacy [%] | DiscoveRx cAMP agonism Emax | DiscoveRx cAMP antagonism IC50 [nM] | DiscoveRx cAMP antagonism log IC50 [log M] | CisBio cAMP antagonism % inhib [%] | CisBio cAMP antagonism IC50 [nM] | CisBio cAMP antagonism pIC50
B1 | 0 | 12 | 91 | -7 |  |  | 
B2 | 9 | 20 | 19 | -7.7 | 72 | 58.4 | 7.2
B3 | 4 | 16 | 123 | -6.9 | 52 | 736 | 6.1
B4 | 0 | 24 | 46 | -7.3 | 62 | 200 | 6.7
